Laboratory results reported in IntAct's records for PubMed 26853155.

B1: Syncytin-2 (Homo sapiens), P60508 (parent)
chain: MGLLLLVLILTPSLAAYRHPDFPLLEKAQQLLQSTGSPYSTNCWLCTSSSTETPGTAYPASPREWTSIEAELHISYRWDPNLKGLMRPANSLLSTVKQDFPDIRQKPPIFGPIFTNINLMGIAPICVMAKRKNGTNVGTLPSTVCNVTFTVDSNQQTYQTYTHNQFRHQPRFPKPPNITFPQGTLLDKSSRFCQGRPSSCSTRNFWFRPADYNQCLQISNLSSTAEWVLLDQTRNSLFWENKTKGANQSQTPCVQVLAGMTIATSYLGISAVSEFFGTSLTPLFHFHISTCLKTQGAFYICGQSIHQCLPSNWTGTCTIGYVTPDIFIAPGNLSLPIPIYGNSPLPRVRRAIHFIPLLAGLGILAGTGTGIAGITKASLTYSQLSKEIANNIDTMAKALTTMQEQIDSLAAVVLQNRRGLDMLTAAQGGICLALDEKCCFWVNQSGKVQDNIRQLLNQASSLRERATQGWLNWEGTWKWFSWVLPLTGPLVSLLLLLLFGPCLLNLITQFVSSRLQAIKLQTNLSAGRHPRNIQESPF
partner: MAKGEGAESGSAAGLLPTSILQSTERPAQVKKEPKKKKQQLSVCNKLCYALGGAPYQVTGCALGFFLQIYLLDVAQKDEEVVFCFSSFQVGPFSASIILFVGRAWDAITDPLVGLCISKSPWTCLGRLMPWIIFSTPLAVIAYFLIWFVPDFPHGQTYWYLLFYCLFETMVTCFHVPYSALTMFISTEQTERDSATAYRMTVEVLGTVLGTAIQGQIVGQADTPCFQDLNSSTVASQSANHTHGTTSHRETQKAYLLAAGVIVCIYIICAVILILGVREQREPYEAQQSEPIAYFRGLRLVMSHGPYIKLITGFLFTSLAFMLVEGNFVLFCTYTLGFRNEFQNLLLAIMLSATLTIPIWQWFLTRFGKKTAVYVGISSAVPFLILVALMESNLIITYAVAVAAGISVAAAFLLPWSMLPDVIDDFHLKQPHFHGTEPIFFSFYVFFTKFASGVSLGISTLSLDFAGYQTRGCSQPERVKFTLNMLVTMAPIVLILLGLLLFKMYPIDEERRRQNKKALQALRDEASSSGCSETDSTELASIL

Variants of: B1
Settings: with nls1_human MFSD2A

Variant	effect of a mutation on the interaction
MGLLLLVLILTPSLAAYRHPDFPLLEKAQQLLQSTGSPYSTNCWLCTSSSTETPGTAYPASPREWTSIEAELHISYRWDPNLKGLMRPANSLLSTVKQDFPDIRQKPPIFGPIFTNISLMGIAPICVMAKRKNGTNVGTLPSTVCNVTFTVDSNQQTYQTYTHNQFRHQPRFPKPPNITFPQGTLLDKSSRFCQGRPSSCSTRNFWFRPADYNQCLQISNLSSTAEWVLLDQTRNSLFWENKTKGANQSQTPCVQVLAGMTIATSYLGISAVSEFFGTSLTPLFHFHISTCLKTQGAFYICGQSIHQCLPSNWTGTCTIGYVTPDIFIAPGNLSLPIPIYGNSPLPRVRRAIHFIPLLAGLGILAGTGTGIAGITKASLTYSQLSKEIANNIDTMAKALTTMQEQIDSLAAVVLQNRRGLDMLTAAQGGICLALDEKCCFWVNQSGKVQDNIRQLLNQASSLRERATQGWLNWEGTWKWFSWVLPLTGPLVSLLLLLLFGPCLLNLITQFVSSRLQAIKLQTNLSAGRHPRNIQESPF [N118S]	increasing interaction strength
MGLLLLVLILTPSLAAYRHPDFPLLEKAQQLLQSTGSPYSTNCWLCTSSSTETPGTAYPASPREWTSIEAELHISYRWDPNLKGLMRPANSLLSTVKQDFPDIRQKPPIFGPIFTNINLMGIAPICVMAKRKNGTNVGTLPSTVCNVTFTVDSNQQTYQTYTHNQFRHQPRFPKPPNITFPQGTLLDKSSRFCQGRPSSCSTRNFWFRPADYNQCLQISNLSSTAEWVLLDQTRNSLFWENKTKGANQSQTPCVQVLAGMTIATSYLGISAVSEFFGTSLTPLFHFHISTCLKTQGAFYICGQSIHQCLPSQWTGTCTIGYVTPDIFIAPGNLSLPIPIYGNSPLPRVRRAIHFIPLLAGLGILAGTGTGIAGITKASLTYSQLSKEIANNIDTMAKALTTMQEQIDSLAAVVLQNRRGLDMLTAAQGGICLALDEKCCFWVNQSGKVQDNIRQLLNQASSLRERATQGWLNWEGTWKWFSWVLPLTGPLVSLLLLLLFGPCLLNLITQFVSSRLQAIKLQTNLSAGRHPRNIQESPF [N312Q]	decreasing interaction strength
MGLLLLVLILTPSLAAYRHPDFPLLEKAQQLLQSTGSPYSTNCWLRTSSSTETPGTAYPASPREWTSIEAELHISYRWDPNLKGLMRPANSLLSTVKQDFPDIRQKPPIFGPIFTNINLMGIAPICVMAKRKNGTNVGTLPSTVCNVTFTVDSNQQTYQTYTHNQFRHQPRFPKPPNITFPQGTLLDKSSRFCQGRPSSCSTRNFWFRPADYNQCLQISNLSSTAEWVLLDQTRNSLFWENKTKGANQSQTPCVQVLAGMTIATSYLGISAVSEFFGTSLTPLFHFHISTCLKTQGAFYICGQSIHQCLPSNWTGTCTIGYVTPDIFIAPGNLSLPIPIYGNSPLPRVRRAIHFIPLLAGLGILAGTGTGIAGITKASLTYSQLSKEIANNIDTMAKALTTMQEQIDSLAAVVLQNRRGLDMLTAAQGGICLALDEKCCFWVNQSGKVQDNIRQLLNQASSLRERATQGWLNWEGTWKWFSWVLPLTGPLVSLLLLLLFGPCLLNLITQFVSSRLQAIKLQTNLSAGRHPRNIQESPF [C46R]	decreasing interaction strength
MGLLLLVLILTPSLAAYRHPDFPLLEKAQQLLQSTGSPYSTNCWLCTSSSTETPGTAYPASPREWTSIEAELHISYRWDPNLKGLMRPANSLLSTVKQDFPDIRQKPPIFGPIFTNINLMGIAPICVMAKRKQGTNVGTLPSTVCNVTFTVDSNQQTYQTYTHNQFRHQPRFPKPPNITFPQGTLLDKSSRFCQGRPSSCSTRNFWFRPADYNQCLQISNLSSTAEWVLLDQTRNSLFWENKTKGANQSQTPCVQVLAGMTIATSYLGISAVSEFFGTSLTPLFHFHISTCLKTQGAFYICGQSIHQCLPSNWTGTCTIGYVTPDIFIAPGNLSLPIPIYGNSPLPRVRRAIHFIPLLAGLGILAGTGTGIAGITKASLTYSQLSKEIANNIDTMAKALTTMQEQIDSLAAVVLQNRRGLDMLTAAQGGICLALDEKCCFWVNQSGKVQDNIRQLLNQASSLRERATQGWLNWEGTWKWFSWVLPLTGPLVSLLLLLLFGPCLLNLITQFVSSRLQAIKLQTNLSAGRHPRNIQESPF [N133Q]	decreasing interaction strength
MGLLLLVLILTPSLAAYRHPDFPLLEKAQQLLQSTGSPYSTNCWLCTSSSTETPGTAYPASPREWTSIEAELHISYRWDPNLKGLMRPANSLLSTVKQDFPDIRQKPPIFGPIFTNINLMGIAPICVMAKRKNGTNVGTLPSTVCNVTFTVDSNQQTYQTYTHNQFRHQPRFPKPPNITFPQGTLLDKSSRFCQGRPSSCSTRNFWFRPADYNQCLQISNLSSTAEWVLLDQTRNSLFWENKTKGANQSQTPCVQVLAGMTIATSYLGISAVSEFFGTSLTPLFHFHISTCLKTQGAFYICGQSIHQCLPSNWTGTCTIGYVTPDIFIAPGNLSLPIPIYGNSPLPRVRRAIHFIPLLAGLGILAGMGTGIAGITKASLTYSQLSKEIANNIDTMAKALTTMQEQIDSLAAVVLQNRRGLDMLTAAQGGICLALDEKCCFWVNQSGKVQDNIRQLLNQASSLRERATQGWLNWEGTWKWFSWVLPLTGPLVSLLLLLLFGPCLLNLITQFVSSRLQAIKLQTNLSAGRHPRNIQESPF [T367M]	disrupting interaction strength
MGLLLLVLILTPSLAAYRHPDFPLLEKAQQLLQSTGSPYSTNCWLCTSSSTETPGTAYPASPREWTSIEAELHISYRWDPNLKGLMRPANSLLSTVKQDFPDIRQKPPIFGPIFTNINLMGIAPICVMAKRKNGTNVGTLPSTVCNVTFTVDSNQQTYQTYTHNQFRHQPRFPKPPNITFPQGTLLDKSSRFCQGRPSSCSTRNFWFRPADYNQCLQISNLSSTAEWVLLDQTRNSLFWENKTKGANQSQTPCVQVLAGMTIATSYLGISAVSEFFGTSLTPLFHFHISTCLKTQGAFYICGQSIHQCLPSNWTGTCTIGYVTPDIFIAPGQLSLPIPIYGNSPLPRVRRAIHFIPLLAGLGILAGTGTGIAGITKASLTYSQLSKEIANNIDTMAKALTTMQEQIDSLAAVVLQNRRGLDMLTAAQGGICLALDEKCCFWVNQSGKVQDNIRQLLNQASSLRERATQGWLNWEGTWKWFSWVLPLTGPLVSLLLLLLFGPCLLNLITQFVSSRLQAIKLQTNLSAGRHPRNIQESPF [N332Q]	decreasing interaction strength
